Among the data in the supplement of paper PMC10567573 are protein stability index values, retold here.

B1: HMOX1 (parent)
chain: YHIYVALEEEIERNKESPVFAPVY
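Also: lentivirally expressed fusions sorted by FACS into six bins by GFP to DsRed ratio, PSI derived from sequencing read proportions per bin multiplied by bin number.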

Variants of B1 are the subject of the data set. The data set can be described thus: protein stability index of a GFP-peptide fusion (GPS, HEK-293T) (PSI 1-6); higher = more stable. As to conditions: c terminus: a fixed tail appended.
With YHIYVALEEEIERNKELPVFAPVY, the protein stability index came to 2.19.

In the case of YHIYVALEEEIERNKEWPVFAPVY, the protein stability index was 2.65.

For YHIYVALEEEITRNKESPVFAPVY, the protein stability index worked out at 1.85.

Turning to YHIYVALEEEIMRNKESPVFAPVY, the protein stability index amounted to 1.2.

Regarding YHIYVALEEEIWRNKESPVFAPVY, the protein stability index stood at 2.27.

Consider YHIYVALEEEINRNKESPVFAPVY, for which the protein stability index was 2.29.

With YHIYVALEEEIGRNKESPVFAPVY, the protein stability index amounted to 3.07.

Turning to YHIYVALEEEIIRNKESPVFAPVY, the protein stability index worked out at 1.45.

Regarding YHIYVALEEEIKRNKESPVFAPVY, the protein stability index worked out at 1.94.

Consider YHIYVALEEEILRNKESPVFAPVY, for which the protein stability index turned out to be 1.83.

Consider YHIYVALEEEIVRNKESPVFAPVY, for which the protein stability index worked out at 1.93.

In the case of YHIYVALEEEICRNKESPVFAPVY, the protein stability index was found to be 1.52.

YHIYVALEEEIRRNKESPVFAPVY: the protein stability index amounted to 1.62.

As to YHIYVALEEEIERNKLSPVFAPVY, the protein stability index came out at 2.32.

With YHIYVALEEEIERNKKSPVFAPVY, the protein stability index is 2.13.

Take YHIYVALEEEIERNKTSPVFAPVY: the protein stability index was determined as 2.12.

Regarding YHIYVALEEEIERNKHSPVFAPVY, the protein stability index is 2.08.

As to YHIYVALEEEIERNKCSPVFAPVY, the protein stability index is 1.57.

Take YHIYVALEEEIERNKPSPVFAPVY: the protein stability index turned out to be 2.23.

Regarding YHIYVALEEEIERNKISPVFAPVY, the protein stability index is 1.42.

For YHNYVALEEEIERNKESPVFAPVY, the protein stability index is 2.12.

For YHVYVALEEEIERNKESPVFAPVY, the protein stability index is 2.18.

For the variant YHQYVALEEEIERNKESPVFAPVY, the protein stability index worked out at 2.27.

Take YHKYVALEEEIERNKESPVFAPVY: the protein stability index came to 1.91.

As to YHDYVALEEEIERNKESPVFAPVY, the protein stability index amounted to 2.27.

With YHCYVALEEEIERNKESPVFAPVY, the protein stability index was 3.57.

As for YHMYVALEEEIERNKESPVFAPVY, the protein stability index turned out to be 1.77.

As for YHEYVALEEEIERNKESPVFAPVY, the protein stability index was found to be 2.33.

In the case of YHWYVALEEEIERNKESPVFAPVY, the protein stability index was 2.12.

Take YHIYVALEEEIERNKESPVFAPVD: the protein stability index came to 3.35.

Take YHIYVALEEEIERNKESPVFAPVT: the protein stability index worked out at 2.96.

As for YHIYVALEEEIERNKESPVFAPVC, the protein stability index turned out to be 2.23.

In the case of YHIYVALEEEIERNKESPVFAPVE, the protein stability index was 3.33.

In the case of YHIYVALEEEIERNKESPVFAPVP, the protein stability index was found to be 3.47.

With YHIYVALEEEIERNKESPVFAPVR, the protein stability index is 3.01.

As to YHIYVALEEEIERNKESPVFAPVL, the protein stability index turned out to be 2.31.

Consider YHIYVALEEEIERNKESPVFAPVN, for which the protein stability index stood at 2.9.

Turning to YHIYVALEEEIERNKESPVFAPVW, the protein stability index came to 1.98.

YHIYVALEEEIERSKESPVFAPVY: the protein stability index turned out to be 2.54.

Take YHIYVALEEEIERAKESPVFAPVY: the protein stability index stood at 1.72.

With YHIYVALEEEIERMKESPVFAPVY, the protein stability index was found to be 2.31.

Take YHIYVALEEEIERVKESPVFAPVY: the protein stability index was found to be 1.49.

YHIYVALEEEIERFKESPVFAPVY: the protein stability index was found to be 2.15.

As for YHIYVALEEEIERNKESPVFAPFY, the protein stability index amounted to 1.78.

Take YHIYVALEEEIERNKESPVFAPNY: the protein stability index was 1.78.

For the variant YHIYVALEEEIERNKESPVFAPAY, the protein stability index was determined as 2.27.

For YHIYVALEEEIERNKESPVFAPLY, the protein stability index came to 1.77.

With YHIYVALEEEIERNKESPVFAPTY, the protein stability index amounted to 1.83.

For YHIYVALEEEIERNKESPVFAEVY, the protein stability index was determined as 2.52.

Take YHIYVALEEEIERNKESPVFAQVY: the protein stability index worked out at 1.98.

YHIYVALEEEIERNKESPVFAKVY: the protein stability index was 2.14.

Consider YHIYVALEEEIERNKESPVFAFVY, for which the protein stability index came out at 2.91.

For the variant YHIYVALEEEIERNKESPVFAMVY, the protein stability index was found to be 3.18.

For the variant YHIYVALEEEIERNKESPVFARVY, the protein stability index was determined as 2.06.

For YHIYVALEEEIERNKESPVFADVY, the protein stability index was determined as 1.8.

In the case of YHIYVAKEEEIERNKESPVFAPVY, the protein stability index came out at 2.2.

With YHIYVAFEEEIERNKESPVFAPVY, the protein stability index turned out to be 1.97.

Take YHIYVANEEEIERNKESPVFAPVY: the protein stability index turned out to be 1.88.

For YHIYVACEEEIERNKESPVFAPVY, the protein stability index amounted to 2.75.

Regarding YHIYVAEEEEIERNKESPVFAPVY, the protein stability index worked out at 1.76.

On to YHIYVAIEEEIERNKESPVFAPVY, for which the protein stability index is 1.76.

On to YHIYVAREEEIERNKESPVFAPVY, for which the protein stability index is 1.67.

As for YHIYVADEEEIERNKESPVFAPVY, the protein stability index was 2.03.

In the case of YHIYVAAEEEIERNKESPVFAPVY, the protein stability index is 2.34.

On to YHIYVALEEEIENNKESPVFAPVY, for which the protein stability index came out at 1.23.

With YHIYVALEEEIEWNKESPVFAPVY, the protein stability index was 2.25.

As to YHIYVALEEEIEKNKESPVFAPVY, the protein stability index was 2.14.

Turning to YHIYVALEEEIEENKESPVFAPVY, the protein stability index came out at 1.34.

As to YHIYVALEEEIEVNKESPVFAPVY, the protein stability index came to 2.02.

Turning to YHIYVALEEEIEGNKESPVFAPVY, the protein stability index turned out to be 1.55.

In the case of YHIYVALEEEIETNKESPVFAPVY, the protein stability index was determined as 1.19.

On to YHIYVALEEEIEINKESPVFAPVY, for which the protein stability index is 2.02.

YHIYVALEEEIECNKESPVFAPVY: the protein stability index is 1.39.

As for YHIYVALEEEEERNKESPVFAPVY, the protein stability index amounted to 1.89.

With YHIYVALEEEVERNKESPVFAPVY, the protein stability index is 1.84.

As for YHIYVALEEEWERNKESPVFAPVY, the protein stability index was determined as 2.18.

Take YHIYVALEEEDERNKESPVFAPVY: the protein stability index turned out to be 1.58.

Take YHIYVALEEERERNKESPVFAPVY: the protein stability index amounted to 1.56.

As to YHIYVALEEEHERNKESPVFAPVY, the protein stability index was 2.01.

Turning to YHIYVALEEETERNKESPVFAPVY, the protein stability index came out at 1.54.

On to YHIYVALEEESERNKESPVFAPVY, for which the protein stability index was 2.15.

Turning to YHIYVALEEELERNKESPVFAPVY, the protein stability index came out at 1.57.

Turning to YHIYVALEEEIERNSESPVFAPVY, the protein stability index worked out at 1.98.

Turning to YHIYVALEEEIERNDESPVFAPVY, the protein stability index is 1.57.

As for YHIYVALEEEIERNVESPVFAPVY, the protein stability index is 1.83.

On to YHIYVALEEEIERNQESPVFAPVY, for which the protein stability index amounted to 2.59.

Regarding YHIYVALEEEIERNHESPVFAPVY, the protein stability index came to 1.42.

In the case of YHIYVALEEEIERNKESSVFAPVY, the protein stability index is 2.13.

On to YHIYVALEEEIERNKESEVFAPVY, for which the protein stability index is 2.59.

Turning to YHIYVALEEEIERNKESCVFAPVY, the protein stability index turned out to be 1.85.

As for YHIYVALEEEIERNKESTVFAPVY, the protein stability index is 2.06.

Regarding YHIYVALEEEIERNKESYVFAPVY, the protein stability index turned out to be 1.89.

YHIYVALEEEIERNKESFVFAPVY: the protein stability index stood at 1.79.

With YHIYVALEEEIERNKESWVFAPVY, the protein stability index turned out to be 2.31.
